Measured values: FireProtDB (doi:10.1021/bi0015717)

Details: Homo sapiens; pH 2.7; Thermal; DSC; glycine-HCl 0.05 M; reversible: yes; whole UniProt chain shown

B1: Lysozyme C wild type, P61626 (protein)
chain: MKALIVLGLVLLSVTVQGKVFERCELARTLKRLGMDGYRGISLANWMCLAKWESGYNTRATNYNAGDRSTDYGIFQINSRYWCNDGKTPGAVNACHLSCSALLQDNIADAVACAKRVVRDPQGIRAWVAWRNRCQNRDVRQYVQGCGV
  Tm: 64.9 °C
  heat capacity change of unfolding: 1.58 kcal/mol/K
  unfolding enthalpy (calorimetric): 114 kcal/mol
